# The supplement of paper PMC11246515
# ± gives the standard deviation of the averaged measurements.
# Assay: total protein half-life in vivo (active degradation + dilution); higher = more stable protein
# [1] = E. coli NCM3722 delta-clpP delta-lon delta-hslV, growth: N-lim chemostat, doubling time 6 h
# [2] = E. coli NCM3722 delta-clpP, growth: N-lim chemostat, doubling time 6 h
# [3] = wild type E. coli NCM3722, growth: C-lim chemostat, doubling time 3 h
# [4] = wild type E. coli NCM3722, growth: C-lim chemostat, doubling time 6 h
# [5] = wild type E. coli NCM3722, growth: C-lim chemostat, doubling time 12 h
# [6] = wild type E. coli NCM3722, growth: N-lim chemostat, doubling time 12 h
# [7] = wild type E. coli NCM3722, growth: P-lim chemostat, doubling time 6 h
# [8] = wild type E. coli NCM3722, growth: P-lim chemostat, doubling time 12 h
# [9] = E. coli NCM3722 delta-smpB, growth: N-lim chemostat, doubling time 6 h
# [10] = wild type E. coli NCM3722, growth: N-lim chemostat, doubling time 6 h
# [11] = E. coli NCM3722 delta-hslV, growth: N-lim chemostat, doubling time 6 h
# [12] = E. coli NCM3722 delta-lon, growth: N-lim chemostat, doubling time 6 h
Sequence,total protein half-life in vivo [1],total protein half-life in vivo [2],total protein half-life in vivo [3],total protein half-life in vivo [4],total protein half-life in vivo [5],total protein half-life in vivo [6],total protein half-life in vivo [7],total protein half-life in vivo [8],total protein half-life in vivo [9],total protein half-life in vivo [10],total protein half-life in vivo [11],total protein half-life in vivo [12]
MSTKPLFLLRKAKKSSGEPDVVLWASNDFESTCATLDYLIVKSGKKLSSYFKAVATNFPVVNDLPAEGEIDFTWSERYQLSKDSMTWELKPGAAPDNAHYQGNTNVNGEDMTEIEENMLLPISGQELPIRWLAQHGSEKPVTHVSRDGLQALHIARAEELPAVTALAVSHKTSLLDPLEIRELHKLVRDTDKVFPNPGNSNLGLITAFFEAYLNADYTDRGLLTKEWMKGNRVSHITRTASGANAGGGNLTDRGEGFVHDLTSLARDVATGVLARSMDLDIYNLHPAHAKRIEEIIAENKPPFSVFRDKFITMPGGLDYSRAIVVASVKEAPIGIEVIPAHVTEYLNKVLTETDHANPDPEIVDIACGRSSAPMPQRVTEEGKQDDEEKPQPSGTTAVEQGEAETMEPDATEHHQDTQPLDAQSQVNSVDAKYQELRAELHEARKNIPSKNPVDDDKLLAASRGEFVDGISDPNDPKWVKGIQTRDCVYQNQPETEKTSPDMNQPEPVVQQEPEIACNACGQTGGDNCPDCGAVMGDATYQETFDEESQVEAKENDPEEMEGAEHPHNENAGSDPHRDCSDETGEVADPVIVEDIEPGIYYGISNENYHAGPGISKSQLDDIADTPALYLWRKNAPVDTTKTKTLDLGTAFHCRVLEPEEFSNRFIVAPEFNRRTNAGKEEEKAFLMECASTGKTVITAEEGRKIELMYQSVMALPLGQWLVESAGHAESSIYWEDPETGILCRCRPDKIIPEFHWIMDVKTTADIQRFKTAYYDYRYHVQDAFYSDGYEAQFGVQPTFVFLVASTTIECGRYPVEIFMMGEEAKLAGQQEYHRNLRTLSDCLNTDEWPAIKTLSLPRWAKEYAND,6.07 ± 0.4 h,3.46 h,3.65 ± 0.15 h,4.2 ± 0.11 h,5.8 ± 1.9 h,> 16 h,2.43 h,4.82 h,–,–,–,–
MSTLEPAAQSKPPGGFKLWLSQLQMKHGRKLVIALPYIWLILLFLLPFLIVFKISLAEMARAIPPYTELMEWADGQLSITLNLGNFLQLTDDPLYFDAYLQSLQVAAISTFCCLLIGYPLAWAVAHSKPSTRNILLLLVILPSWTSFLIRVYAWMGILKNNGVLNNFLLWLGVIDQPLTILHTNLAVYIGIVYAYVPFMVLPIYTALIRIDYSLVEAALDLGARPLKTFFTVIVPLTKGGIIAGSMLVFIPAVGEFVIPELLGGPDSIMIGRVLWQEFFNNRDWPVASAVAIIMLLLLIVPIMWFHKHQQKSVGEHG,6.86 h,4.75 ± 1.4 h,–,5.16 ± 0.14 h,12 ± 1.7 h,10.6 ± 0.24 h,6.7 h,13.2 ± 1.9 h,5 h,5.38 h,–,–
MSTLGHQYDNSLVSNAFGFLRLPMNFQPYDSDADWVITGVPFDMATSGRAGGRHGPAAIRQVSTNLAWEHNRFPWNFDMRERLNVVDCGDLVYAFGDAREMSEKLQAHAEKLLAAGKRMLSFGGDHFVTLPLLRAHAKHFGKMALVHFDAHTDTYANGCEFDHGTMFYTAPKEGLIDPNHSVQIGIRTEFDKDNGFTVLDACQVNDRSVDDVIAQVKQIVGDMPVYLTFDIDCLDPAFAPGTGTPVIGGLTSDRAIKLVRGLKDLNIVGMDVVEVAPAYDQSEITALAAATLALEMLYIQAAKKGE,6.58 ± 1 h,5.85 ± 0.27 h,2.9 ± 0.36 h,6.205 ± 0.019 h,11.8 ± 0.43 h,11.9 h,6.0955 ± 0.0043 h,12.2 ± 1.3 h,5.82 ± 0.58 h,6.72 ± 0.96 h,5.33 ± 0.076 h,7.38 ± 0.48 h
MSTLRLLISDSYDPWFNLAVEECIFRQMPATQRVLFLWRNADTVVIGRAQNPWKECNTRRMEEDNVRLARRSSGGGAVFHDLGNTCFTFMAGKPEYDKTISTSIVLNALNALGVSAEASGRNDLVVKTVEGDRKVSGSAYRETKDRGFHHGTLLLNADLSRLANYLNPDKKKLAAKGITSVRSRVTNLTELLPGITHEQVCEAITEAFFAHYGERVEAEIISPNKTPDLPNFAETFARQSSWEWNFGQAPAFSHLLDERFTWGGVELHFDVEKGHITRAQVFTDSLNPAPLEALAGRLQGCLYRADMLQQECEALLVDFPEQEKELRELSAWMAGAVR,4.61 ± 0.64 h,–,2.93 ± 0.24 h,5.88 ± 0.59 h,11 ± 0.56 h,7.13 ± 0.78 h,5.78 ± 0.2 h,11.9 ± 0.67 h,4.227 ± 0.0072 h,4.8 ± 0.4 h,4.05 ± 0.39 h,5.74 ± 1.3 h
MSTPDNHGKKAPQFAAFKPLTTVQNANDCCCDGACSSTPTLSENVSGTRYSWKVSGMDCAACARKVENAVRQLAGVNQVQVLFATEKLVVDADNDIRAQVESALQKAGYSLRDEQAAEEPQASRLKENLPLITLIVMMAISWGLEQFNHPFGQLAFIATTLVGLYPIARQALRLIKSGSYFAIETLMSVAAIGALFIGATAEAAMVLLLFLIGERLEGWAASRARQGVSALMALKPETATRLRKGEREEVAINSLRPGDVIEVAAGGRLPADGKLLSPFASFDESALTGESIPVERATGDKVPAGATSVDRLVTLEVLSEPGASAIDRILKLIEEAEERRAPIERFIDRFSRIYTPAIMAVALLVTLVPPLLFAASWQEWIYKGLTLLLIGCPCALVISTPAAITSGLAAAARRGALIKGGAALEQLGRVTQVAFDKTGTLTVGKPRVTAIHPATGISESELLTLAAAVEQGATHPLAQAIVREAQVAELAIPTAESQRALVGSGIEAQVNGERVLICAAGKHPADAFTGLINELESAGQTVVLVVRNDDVLGVIALQDTLRADAATAISELNALGVKGVILTGDNPRAAAAIAGELGLEFKAGLLPEDKVKAVTELNQHAPLAMVGDGINDAPAMKAAAIGIAMGSGTDVALETADAALTHNHLRGLVQMIELARATHANIRQNITIALGLKGIFLVTTLLGMTGLWLAVLADTGATVLVTANALRLLRRR,4.91 ± 0.22 h,4.33 ± 0.16 h,2.62 ± 0.26 h,4.55 ± 0.4 h,6.13 ± 1.8 h,7.59 ± 0.2 h,4.2 ± 0.081 h,7.64 ± 0.21 h,4.331 ± 0.021 h,3.874 ± 0.016 h,4.07 ± 0.092 h,5.05 ± 0.95 h
MSTPSARTGGSLDAWFKISQRGSTVRQEVVAGLTTFLAMVYSVIVVPGMLGKAGFPPAAVFVATCLVAGLGSIVMGLWANLPLAIGCAISLTAFTAFSLVLGQHISVPVALGAVFLMGVLFTVISATGIRSWILRNLPHGVAHGTGIGIGLFLLLIAANGVGLVIKNPLDGLPVALGDFATFPVIMSLVGLAVIIGLEKLKVPGGILLTIIGISIVGLIFDPNVHFSGVFAMPSLSDENGNSLIGSLDIMGALNPVVLPSVLALVMTAVFDATGTIRAVAGQANLLDKDGQIIDGGKALTTDSMSSVFSGLVGAAPAAVYIESAAGTAAGGKTGLTAITVGVLFLLILFLSPLSYLVPGYATAPALMYVGLLMLSNVAKIDFADFVDAMAGLVTAVFIVLTCNIVTGIMIGFATLVIGRLVSGEWRKLNIGTVVIAVALVTFYAGGWAI [P0AF52],6.73 ± 0.3 h,6.71 ± 0.4 h,3.4 ± 0.27 h,6.122 ± 0.032 h,13.3 ± 3.4 h,12.2 ± 0.93 h,6.39 ± 0.3 h,14.2 ± 1.6 h,–,6.45 ± 0.33 h,–,–
MSTRLTTLSHTSEGHRVSVHYGYDDKGRLTGERQTVENPETGELLWHHETGHAYNEQGLANRVTPDSLPPVEWLTYGSGYLAGMKLGGTPLLEFTRDRLHRETVRSFGSMAGSNAAYKLTSTYTPAGQLQSQHLNSLVYDRDYGWNDNGDLVRISGPRQTREYGYSATGRLESVRTLAPDLDIRIPYATDPAGNRLPDPELHPDSTLTVWPDNRIAEDAHYVYRHDEYGRLTEKTDRIPAGVIRTDDERTHHYHYDSQHRLVFYTRIQHGEPLVESRYLYDPLGRRMAKRVWRRERDLTGWMSLSRKPEVTWYGWDGDRLTTVQTDTTRIQTVYEPGSFTPLIRVETENGEREKAQRRSLAETLQQEGSENGHGVVFPAELVRLLDRLEEEIRADRVSSESRAWLAQCGLTVEQLARQVEPEYTPARKVHFYHCDHRGLPLALISEDGNTAWRGEYDEWGNQLNEENPHHLHQPYRLPGQQHDEESGLYYNRHRHYDPLQGRYITPDPIGLRGGWNMYQYPLNPIQVIDPMGLDAIENMTSGGLIYAVSGVPGLIAANSITNSAYQFGYDMDAIVGGAHNGAADAMRHCYLMCRMTKTFGSTIADVIGKNHEAAGDRQGQPAKERIMDLKNNTVGIACGDFSAKCSDACIEKYNTGQLFGLDGIKADNPIKAKQGSSDASNY,3.27 h,–,–,–,–,–,–,–,–,–,–,–
MSTSDDIHNTTATGKCPFHQGGHDQSAGAGTTTRDWWPNQLRVDLLNQHSNRSNPLGEDFDYRKEFSKLDYYGLKKDLKALLTESQPWWPADWGSYAGLFIRMAWHGAGTYRSIDGRGGAGRGQQRFAPLNSWPDNVSLDKARRLLWPIKQKYGQKISWADLFILAGNVALENSGFRTFGFGAGREDVWEPDLDVNWGDEKAWLTHRHPEALAKAPLGATEMGLIYVNPEGPDHSGEPLSAAAAIRATFGNMGMNDEETVALIAGGHTLGKTHGAGPTSNVGPDPEAAPIEEQGLGWASTYGSGVGADAITSGLEVVWTQTPTQWSNYFFENLFKYEWVQTRSPAGAIQFEAVDAPEIIPDPFDPSKKRKPTMLVTDLTLRFDPEFEKISRRFLNDPQAFNEAFARAWFKLTHRDMGPKSRYIGPEVPKEDLIWQDPLPQPIYNPTEQDIIDLKFAIADSGLSVSELVSVAWASASTFRGGDKRGGANGARLALMPQRDWDVNAAAVRALPVLEKIQKESGKASLADIIVLAGVVGVEKAASAAGLSIHVPFAPGRVDARQDQTDIEMFELLEPIADGFRNYRARLDVSTTESLLIDKAQQLTLTAPEMTALVGGMRVLGANFDGSKNGVFTDRVGVLSNDFFVNLLDMRYEWKATDESKELFEGRDRETGEVKFTASRADLVFGSNSVLRAVAEVYASSDAHEKFVKDFVAAWVKVMNLDRFDLL,4.4 ± 0.59 h,4.3 ± 0.3 h,3.116 ± 0.024 h,5.85 ± 0.14 h,11.8 ± 0.71 h,3.44 ± 0.15 h,5.34 ± 0.14 h,8.87 ± 0.34 h,3.68 ± 0.21 h,3.11 ± 0.44 h,3.14 ± 0.31 h,3.31 ± 0.44 h
MSTTIEKIQRQIAENPILLYMKGSPKLPSCGFSAQAVQALAACGERFAYVDILQNPDIRAELPKYANWPTFPQLWVDGELVGGCDIVIEMYQRGELQQLIKETAAKYKSEEPDAE [P0AC69],6.29 h,5.76 ± 1.2 h,2.37 ± 0.19 h,5.03 ± 0.74 h,6.84 ± 0.26 h,5.45 ± 0.99 h,4.67 ± 1.3 h,11.4 ± 3.8 h,3.43 ± 0.19 h,3.25 ± 0.33 h,3.71 ± 0.071 h,4.31 ± 0.19 h
MSVFPESFLWGGALAANQSEGAFREGDKGLTTVDMIPHGEHRMAVKLGLEKRFQLRDDEFYPSHEATDFYHRYKEDIALMAEMGFKVFRTSIAWSRLFPQGDEITPNQQGIAFYRSVFEECKKYGIEPLVTLCHFDVPMHLVTEYGSWRNRKLVEFFSRYARTCFEAFDGLVKYWLTFNEINIMLHSPFSGAGLVFEEGENQDQVKYQAAHHQLVASALATKIAHEVNPQNQVGCMLAGGNFYPYSCKPEDVWAALEKDRENLFFIDVQARGTYPAYSARVFREKGVTINKAPGDDEILKNTVDFVSFSYYASRCASAEMNANNSSAANVVKSLRNPYLQVSDWGWGIDPLGLRITMNMMYDRYQKPLFLVENGLGAKDEFAANGEINDDYRISYLREHIRAMGEAIADGIPLMGYTTWGCIDLVSASTGEMSKRYGFVFVDRDDAGNGTLTRTRKKSFWWYKKVIASNGEDLE,3.7 h,> 8 h,–,2.47 h,4.65 ± 0.73 h,–,–,4.04 ± 0.89 h,1.81 ± 0.14 h,–,1.88 h,–
